From the supplement of paper PMC12636428

Tested on: Saccharomyces cerevisiae
Experiment: transcriptional activation domain activity (GFP:mCherry ratio, weighted mean of sorted bins, harmonized to initial dataset scale) (arbitrary fluorescence ratio units); higher = stronger transcriptional activation
Details: beta-estradiol 1 µM; induction time 4 h
Description: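 53-aa protein tiles (fungal proteins plus yeast TF control tiles) fused C-terminally to a DBD-estrogen-binding domain-mCherry synthetic TF, integrated in S. cerevisiae (URA3 locus) with a GFP reporter. Cells were induced with 1 uM beta-estradiol for 4 h at 30 C, FACS-sorted into 8 bins by GFP:mCherry ratio and barcodes sequenced. Activity is the read-weighted mean bin fluorescence (GFP:mCherry), averaged over barcodes (median 12); tiles under 50 reads were discarded. New active-learning values were harmonized by linear fit onto the scale of the initial (Hummel et al.) dataset. The assay saturates at low and high signal.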

Sequence | transcriptional activation domain activity
KPLSIILGLVNVFVLYNYLSTGVSLWMISLRFSSFSCRFLADVFSCLLVFLLC | 60600
PTGESLLDAYWKTLLGGITYGDPNGMEALFWDWYQGILPFRMLQLFHLDRVWF | 48500
DEDRRKRRRSRSRSPDREEESSRRRRDRSRSRSKDADRKKRKRDKSEERKARK | 30900
EVHLHIRKVYRHYDDLEHLGRRKFNFLTLVIRHLLDIVGIDSPWALFSRKPQQ | 63000
MKVFCSSFPFSNPILFYFSLLQIIFDYWLYNFMGSFYFWLPLAPFFFFFFLVL | 47500
IKITKEHKWIIVFKIRYKLFKYLVILFKLTNGASLFSYFINSLLFYNLLNNFY | 54600
RNSSLEEEDQVVAEGEVVGAAEEEGGEGEGREEVVVTEGREDMAVVGMAGMAD | 35400
LLLYLLQLVQALKYEHISTEANRDATQKSSLARFLIARAVDSFMLGNYFYWYL | 59400
RFFIRVLSNLKIDRHNSMYCTLGRPITILNLILRGWYVVRKFIILLFSIVLLF | 54100
NLLSKELLMPAVSELNEYLDLFKNNFLPHFPIIHPSLLDLDLDSLQRYTNEDG | 48900
NLNFMPINNNYNNSGSNINNNDNVKLPSNFKNYYDPPMSSLDISMDVPDIFGS | 94300
LCLLHRWKEFNQPEDVKCAVEYLRHLRGLPLDTFEVSHKVVTILLVQVLGIQV | 48900
KQYCVRPNSGRIEAGKDVEVQVLLQAMKEDPPQGYKCRDKFLVQSVAITADRE | 21700
LPVYQLSVSPWKSKEAMDAWCMAKIESLLLDFKFLNAWVQLLVANNLQQIHIP | 63900
RNLGKLCSLHIEIRDPDLHRWNLVTLILVVHTLKSPFLERVCISFATYANIYG | 42300
EDEAPEPEAEEKKPSAKGRRASKVKQENDEEPEPEPVKQVAKAKRGSKKAVKE | 40200
AQPSAGFGQPSTIGAKPNPFGAPAFGQPAQPAGPAFGQPSQPTTTAAFGQPSQ | 29900
NPPIPVIPADVDRSKIPKCKHIGSRLRHFDDDLGYYLVQVCINLLQRIWKIFY | 37200
MPSFFLFFLFFFLLSQCFLVLCHVCIGLVSFSSLSFFFFFPYSTFFSPLPFFL | 61700
TSTAPHRGFGFVEFEHPEDAKAAQDNMHLSELYGKTIKVNLARPLKGAGPGGR | 57100
RRGEGRRGEGRRGEGRRGEGRRGEGRRGEGRGGEGRGGRGGRGRGSSGTGTGS | 28000

Sequence | transcriptional activation domain activity
MAFGAVLGLFICDADKVVRADGSRIILMKHPSWKTEIVGLWQTLIAEPWIIML | 51400
MLTIYFPLLLFLCFHFFNRVKVWWVWVWGRVKLGWVYWFLYLCIWKGGWIRNR | 48300
FVLLFSIFQILFSKSPFVLCVWLISLALIATIKTMYSVLITWHLQFLAFPFYS | 54400
HSILGFRFPRLRIMRCITCSSMRPDLRWLTFPIFENLEVFITSLYLTRKYWIQ | 58300
SPTRAYVGANTNSKNASFNDADLLSSSYWIKAYNDHLFSVSESDETSPMNSEL | 38800
SERRSHNQRDPERRDRNSNQSKRRRVDDSDSESDRRNRRRRVEHSSRKSHRSR | 43800
MVVIWGLDLKEMQWWKFKGSYMFNQTYHLRRTKMIVYQIAMIFMVCSESVGTA | 31600
FGWHIYKKIGADLAMRGKRSLSPLISSSPRLADRYKMYQIFMMLLKLDFFFFL | 77900
GMIGFDPNVSLEKIYHGRFKDILHKGIQIADRTFTFLGFSHSSLRGHTCWFAA | 75600
MVICFHSLFLQLTTCVLDLYLHYGFLVLFLFLFFIFFPASYFSAYFFFFFIFC | 35900
MPGGWVFLMSIAFYYFILLFFLLLPMIYGFLFVCLFGVGTCFVICTFGFFPFF | 62400
MFVCTSQSFIRSMGLYGFYLTGLMMTLLVVVVSLTFIQYPTIVILTLFHCLIS | 44800
LLVLYLVLSYLKHSHMEGLGEFMIKFFEECNVDPFSKVFRGGHYKESVFEGVY | 76100
NILFHKLFYAYENVLVIISLIYKKKPLGRLQNTRKCSSINVLCNYILEYGRKY | 42100
GAVMPILMQFFFIMAWNGICNGMHLYAAYNLRTHVLARLFWSILWPLLSSLCS | 59900
SERSERRADERSSRNGPSEAERGSERERGGREKRGGDRESSRRERERGGEARE | 17200
GDAKSTLEQLGDDAKLVDEDGNLCDAECIVDKVKEVVKHAGRTTRKSLLKLGL | 51100
ISVLGNQQIPGISHGDGLLPDVDGLLGNDTFWSFTDAAWMGEIEDNISGFIWD | 143000
EGPPSPDKGKAEDEKNEKPQANTAKKAKPTEEKKVGEGKKAAAGTGGAGAKKE | 23200
MISFFNWQVWGGFCGLLFIFFLFDFFLLEFGSTYHLLEDGLNLFLFWYFYDYD | 43600
SSAAAGSSGNASRAAMDVDGEVDADADENRRRSTRASAGRKKAGSAVKKAGTG | < 6570

Sequence | transcriptional activation domain activity
TPDSLCEAVTDLVRDIWYPLMTWMEFANPASGYISLDAPLFRAVLSLFHHFFA | 42900
PPCLKLAGWLAFVVGSFCQSTNLVVIQISQNNWDCFSIWRTLILLVIFFSLPA | 58500
MPLFCSISPSFHESVHFWFFFFFFLSLTLFPSFRLVSYFCTFFLFLNWVNRGF | 44800
DIDEQRLQLYGVQIQIFLFVVMLYIFGCNLVIASKMVVLQPRNMVSWCCLIPS | 46800
KGIAGLGPTKTIGLFVVLYIATAIFVFVYIVMQFLLVFGTLTERWPAGHLAFC | 52200
IFLACCAVFPGLGNLGFTLMQYRLGQRSFLSAAAENLTWVPFFFFFFGGLSVH | 78400
CCMVWGRRWLIVLFPIFCLITVFVFKILEVFTGAFSWVENVRFLVVYLSCILA | 34800
MSSTKRPAEEEEPVIHEEDEPGKPDSAAAPAPKRRGRPPGSKNKKTIAAEAAA | 32700
RPKVQPFWVIDLFVPYRPLLSFVSDLYFAYQAWTQLTGLTVTLFYFSIWKLAL | 58500
IQEEVKAKKKRKSRKGAKEEGEASPAESSESDGEQEKPKKKASRKKKRPKVEG | 27600
MYGHVWMGVLHCKLLLVGFLWVLFTLMPDMYIHGREGINSAYTIGHSFTIGFA | 47400
MHVAYFMVLFFFIVLIDAHLVVPYIFDVELLTYMLNDAFKFDLFGCFCKVIVI | 68900
VEEVLEKRAHRGPAGRSVEEEDEDVEEVLEKRAHRGPAGRSVEVEEKRAHRGP | 29700
MTWRGLSLLLSVLLITWCDPAFFPPVYIQFLFIFIFAWLHLIFLFLIQYLGCI | 37900
VFFFLVIALYPFFSSLFTRHGFYTFSPFNCQLSWLFFQWGHSILLFLLRLVSY | 46600
LHFLSIDITSPFLPLDILPDLWATMWPWIRLIDSYWDSLPTLHEWFPSIQIYT | 57500
EHIEVDLTGIEEVTTGAGLLSRTRTSRHCFLHKTKVLQILDMKCTHDHPSPSS | 29800
MERNGNVVWILFWHFHLLFFWAMEKSFDFLHSKTLSPFWFITYFLYLLILFYL | 31900
MLYLYPLYLGYYLFLFLSISRLEKFLHIGSLITCLPRLVSLEIRLTLCLYYHL | 80100
